In patent US20060252116A1 (published 2006):
Ends that are not written are not given here.

B1: tRwATSRit peptide (SEQ ID NO: 10) (peptide)
peptide: TRWATSRIT
modifications: not fully specified (residues 1, 3, 8, 9)
notes: Nine residues of the G strand of domain 1 of mature human ICAM-4, starting at T91; also called G strand peptide
B2: aWssLahcl peptide (SEQ ID NO: 11) (peptide)
peptide: AWSSLAHCL
notes: Nine residues of the F strand of domain 1 of mature human ICAM-4, starting at A76; also called F strand peptide
B3: human ICAM-4Fc (Fc fusion)
chain: AQSPKGSPLAPSGTSVPFWVRMSPEFVAVQPGKSVQLNCSNSCPQPQNSSLRTPLRQGKTLRGPGWVSYQLLDVRAWSSLAHCLVTCAGKTRWATSRITAYKPPHSVILEPPVLKGRKYTLRCHVTQVFPVGYLVVTLRHGSRVIYSESLERFTGLDLANVTLTYEFAAGPRDFWQPVICHARLNLDGLVVRNSSAPITLMLAWSPAPTA
notes: Expressed in COS-7 cells, purified on protein A; also called Fc fusion ICAM-4 protein; wild-type ICAM-4Fc; not shown: Fc part from the pIg vector
B4: svpFWVrms peptide (SEQ ID NO: 9) (peptide)
peptide: SVPFWVRMS
notes: Nine residues of the A strand of domain 1 of mature human ICAM-4, starting at S15; also called A strand peptide
B5: rqgktlrgp peptide (SEQ ID NO: 13) (peptide)
peptide: RQGKTLRGP
notes: Control peptide; nine residues of the D strand of domain 1 of mature human ICAM-4, starting at R56; also called D strand peptide

Tests used:
[1] = target: T1, αv integrins (as found on HT1080 cells) (UniProt P06756 31-1048); assay: HT1080 cell adhesion to coated human ICAM-4Fc (7.5 ug/ml), peptide 500 uM; competitor human ICAM-4Fc
T1 construct: whole, on cells; also called αv integrin ligand
T1 sequence (P06756 31-1048): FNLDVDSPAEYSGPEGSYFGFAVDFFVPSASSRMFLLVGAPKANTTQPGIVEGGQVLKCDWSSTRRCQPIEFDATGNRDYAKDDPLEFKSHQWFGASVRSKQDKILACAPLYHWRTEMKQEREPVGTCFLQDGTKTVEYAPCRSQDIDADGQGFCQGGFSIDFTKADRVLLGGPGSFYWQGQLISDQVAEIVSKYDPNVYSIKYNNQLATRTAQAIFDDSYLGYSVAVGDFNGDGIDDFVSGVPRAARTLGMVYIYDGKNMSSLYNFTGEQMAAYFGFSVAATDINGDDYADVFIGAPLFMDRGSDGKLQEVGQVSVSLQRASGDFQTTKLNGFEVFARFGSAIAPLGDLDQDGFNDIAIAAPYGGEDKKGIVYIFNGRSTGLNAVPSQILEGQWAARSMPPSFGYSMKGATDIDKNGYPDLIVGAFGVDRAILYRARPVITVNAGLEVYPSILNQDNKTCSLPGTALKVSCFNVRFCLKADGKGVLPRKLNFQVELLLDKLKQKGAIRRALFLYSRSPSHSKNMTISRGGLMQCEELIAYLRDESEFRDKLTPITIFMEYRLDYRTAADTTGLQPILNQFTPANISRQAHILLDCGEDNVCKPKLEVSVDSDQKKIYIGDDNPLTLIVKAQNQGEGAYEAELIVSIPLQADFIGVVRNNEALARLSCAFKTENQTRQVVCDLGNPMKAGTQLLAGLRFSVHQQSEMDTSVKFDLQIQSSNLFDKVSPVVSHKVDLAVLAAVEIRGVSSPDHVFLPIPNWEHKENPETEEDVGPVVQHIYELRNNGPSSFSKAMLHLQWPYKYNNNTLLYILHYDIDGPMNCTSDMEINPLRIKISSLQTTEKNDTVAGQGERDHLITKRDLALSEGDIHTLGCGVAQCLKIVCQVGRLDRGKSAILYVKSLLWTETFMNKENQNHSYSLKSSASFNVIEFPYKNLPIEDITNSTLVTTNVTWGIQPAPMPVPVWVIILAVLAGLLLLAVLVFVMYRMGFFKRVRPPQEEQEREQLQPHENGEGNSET
Protocol: FIG. 10. […] Human ICAM-4Fc was coated at a concentration of 7.5 μg/ml, peptides were used at 500 μM final concentration for each peptide, and each data point is the mean of three independent assays.
(§1) Cell adhesion assays were performed as described in Spring et al. 2001 (supra). Immulon4 96 well plates (Dynex Technologies, Billingshurst, United Kingdom) were coated with 1 μg/well goat-antihuman-Fc (Sigma, Poole, United Kingdom) for 24 hours at 4° C., washed three times with PBS and coated with an Fc fusion ICAM-4 protein for 18 hours at 4° C. before blocking with 0.4% BSA PBS for 2 hours at 22° C. Cells were labelled with 10 μg/ml 2′,7′-bis-(2-carboxyethyl)-5-(and-6-) carboxyfluorescein acetoxymethyl ester in assay buffer (IMEM, 2 mM EGTA, 10 μg/ml human ivIgG) for 15 minutes at 37° C. HT1080 cells were activated with 80 μM phorbol myristate acetate prior to both cells being washed with assay buffer containing 2 mM Mn²⁺. Cells, at 5×10⁴ cells per well, were added to the ICAM-4Fc-coated plates for 30 minutes at 37° C., prior to being given repeated washes in assay buffer and read on a fluorescence microplate reader (excitation 485 nm, emission 530 nm). The percentage of bound cells was calculated after each wash. Peptide inhibition was performed by incubating the cells with 500 μM peptide at 0° C. for 15 minutes ahead of their addition, still in the presence of 500 μM peptide to the ICAM-4Fc coated plates.

[2] = target: T1, αv integrins (as found on HT1080 cells); assay: HT1080 cell adhesion to coated human ICAM-4Fc (5 ug/ml); value is for the MIXTURE with control peptide SEQ ID NO: 13, each peptide 750 uM
Protocol: (§2) Human ICAM-4Fc was coated at a concentration of 5 μg/ml, peptides were used at 750 μM final concentration for each peptide, and each data point is the mean of two independent assays.
as §1, with “plates. In peptide inhibition studies the appropriate ICAM-4Fc coating concentration for each cell line was pre-determined by titration of ICAM-4Fc and the lowest concentration at which maximal binding was achieved was used to coat the plates” for “plates.”

[3] = target: T1, αv integrins (as found on HT1080 cells); assay: HT1080 cell adhesion to coated human ICAM-4Fc (5 ug/ml); value is for the MIXTURE of SEQ ID NO: 9, 10 and 11, each peptide 750 uM
Protocol: as §2
as §1, with “plates. In peptide inhibition studies the appropriate ICAM-4Fc coating concentration for each cell line was pre-determined by titration of ICAM-4Fc and the lowest concentration at which maximal binding was achieved was used to coat the plates” for “plates.”

[4] = target: T1, αv integrins (as found on HT1080 cells); assay: HT1080 cell adhesion to coated murine ICAM-4Fc (5 ug/ml), peptide 500 uM; competitor murine ICAM-4Fc
Protocol: FIG. 14. […] Murine ICAM-4Fc was coated at a concentration of 5 μg/ml, peptides were used at 500 μM final concentration for each peptide, and each data point is the mean of two independent assays.
as §1

[5] = target: T1, αv integrins (as found on HT1080 cells); assay: HT1080 cell adhesion to coated human ICAM-4Fc (5 ug/ml), peptide 750 uM; competitor human ICAM-4Fc
Protocol: as §2
as §1, with “plates. In peptide inhibition studies the appropriate ICAM-4Fc coating concentration for each cell line was pre-determined by titration of ICAM-4Fc and the lowest concentration at which maximal binding was achieved was used to coat the plates” for “plates.”

αLβ2 integrin = target: T2, αLβ2 integrin (UniProt P20701 26-1170; P05107 23-769); assay: neutrophil adhesion to coated ICAM-4Fc with blocking integrin antibodies
T2 construct: whole, on cells; also called LFA-1; β2 integrins
Protocol: (§3) Utilising blocking β integrin subunit antibodies and our blocking ICAM-4 peptides (i.e., SEQ ID NOs: 9, 10, 11 and 13—see Example 1) in a microplate neutrophil adhesion assay. Neutrophils were purified from buffy coats (obtained from the National Blood Service, Bristol, UK) as described in Henderson et al. (1987, Biochem. J. 246: 325-329). Cell adhesion assays were performed as described in Example 1 above. […] Neutrophils were labelled with 10 μg/ml 2′,7′-bis-(2-carboxyethyl)-5-(and-6-)carboxyfluorescein acetoxymethyl ester (Sigma, Poole, UK) in assay buffer (Iscoves modified Eagle medium, 2 mM EGTA, 0.1% BSA for 15 minutes at 37° C. Neutrophils were washed with assay buffer containing 2 mM Mn²⁺. Neutrophils, at 5×10⁵ cells per well, were added to the ICAM-4Fc-coated plates for 10 minutes at 37° C., prior to being cyclically read on a fluorescence microplate reader (excitation 485 nm, emission 530 nm) and washed in assay buffer. The percentage of bound cells was calculated after each wash. Peptide and antibody inhibition was performed by incubating the cells with 500 μM peptide and 25 μg/ml antibody at 0° C. for 15 minutes before their addition to the ICAM-4 Fc coated plates. […]

αMβ2 integrin = αMβ2 integrin (UniProt P11215 17-1152; P05107 23-769); assay: as above
Protocol: as §3

Binder | input cells bound as % of binding to ICAM-4Fc in the absence of peptides [1] [%] | input cells bound as % of binding to ICAM-4Fc in the absence of peptides [2] [%] | input cells bound as % of binding to ICAM-4Fc in the absence of peptides [3] [%] | input cells bound as % of binding to murine ICAM-4Fc in the absence of peptides [4] [%] | input cells bound as % of binding to ICAM-4Fc in the absence of peptides [5] [%] | binding result (αLβ2 integrin) | binding result (αMβ2 integrin)
B1 | 60 | 39 | 52 | 80 | 42 |  | 
B2 |  | 64 | 52 |  | 71 |  | 
B3 |  |  |  |  |  | binds | binds
B4 | 46 | 40 | 52 | 60 | 41 |  | 
B5 | 97 |  |  | 92 | 96 |  | 
